This is an account of results in the PETadex activity labels (doi:10.1128/spectrum.00976-21).

Substrate in one data set: pNP-C2
As to the kind of experiment: Proxy for plastic degradation [Specific activity].

Substrate in the next data set: PET; PCL
As to the kind of experiment: Proxy for plastic degradation [Titratable acid release]. Particulars: pH 7.5; 14 h.

B1: unnamed (protein)
chain: MVRVFGLTLLALLVPALAAPVPEDLEARQSGCADVMVVYARGTDQDSPIGDPASVGVLFRDNIKSLLGSRTFSFQGVNYAANVIGFLQGGDPAGSRQMTTDLTNVANSCPNAKIVSAGYSQGGQLVHNSAAQLTAAVRNRINAVVIFGDPKSDQAVTGIPSSNVKIICHDGDNICEGGFIVTSQHTNYQQDAPAAAQFVLSKV
As for B1, the “Proxy for plastic degradation” value worked out at 0 U/mg with pNP-C2 (pH 2); 0 U/mg with pNP-C2 (pH 3); 0 U/mg with pNP-C2 (pH 4); 14500 U/mg in the data set with pNP-C2 (pH 5); 27500 U/mg in the data set with pNP-C2 (pH 6); 29500 U/mg with pNP-C2 (pH 7). Moreover, the “Proxy for plastic degradation” value was found to be 17500 U/mg in the data set with pNP-C2 (pH 7.5, 0 h); 0 U/mg in the data set with pNP-C2 (pH 7.5, 20 °C); 22500 U/mg in the data set with pNP-C2 (pH 7.5, 30 °C); 32500 U/mg with pNP-C2 (pH 7.5, 40 °C); 20000 U/mg with pNP-C2 (pH 7.5, 50 °C); 300 U/mg with pNP-C2 (pH 7.5, 60 °C). The “Proxy for plastic degradation” value worked out at 0 U/mg with pNP-C2 (pH 7.5, 70 °C); 0 U/mg in the data set with pNP-C2 (pH 7.5, 80 °C); 19400 U/mg with pNP-C2 (pH 7.5, 1 h); 22500 U/mg with pNP-C2 (pH 7.5, 2 h); 35000 U/mg with pNP-C2 (pH 7.5, 3 h); 25000 U/mg with pNP-C2 (pH 7.5, 4 h). The “Proxy for plastic degradation” value with pNP-C2 (pH 7.5, 5 h) came out at 18500 U/mg; with pNP-C2 (pH 8) it was 32200 U/mg; with pNP-C2 (pH 9), 10000 U/mg; with PET; PCL, 10.9 mL.
